This is an account of results in the Human Domainome abundance scans (Beltran et al. 2025).

Sequences and labels used below:
B1: Histone-lysine N-methyltransferase 2A, residues 1148 to 1194; numbered along this chain, Q03164 (parent)
chain: KGRRSRRCGQCPGCQVPEDCGVCTNCLDKPKFGGRNIKKQCCKMRKC

± gives the uncertainty stated by the source.

The series covers variants of B1. Kind of series: abundance fitness (aPCA) (normalised: wild type 0, dead -1); higher = more abundant; growth selection in yeast, the domain comes from the species named. The settings on record: Homo sapiens.
On to KGRRSRRCGQCPGCQVPEDCGVCTNCLDKPKFGGRNIKKQCCKHRKC, for which the abundance fitness was -0.181 ± 0.15. The value for KGRRSRRCGQCPGCQVPEDCGVCTNCLDKPKFGGRNIKKQCCKDRKC was -0.242 ± 0.13; that for KGRRSRRCGQCPGCQVPEDCGVCTNCLDKPKFGGRNIKKQCCKYRKC was -0.205 ± 0.16. The value for KGRRSRRCGQCPGCQVPEDCGVCTNCLDKPKFGGRNIKKQCCKARKC was -0.012 ± 0.086; that for KGRRSRRCGQCPGCQVPEDCGVCTNCLDKPKFGGRNIKKQCCKKRKC was -0.037 ± 0.12.

As to KGRRSRRCGQCPGCQVPEDCGVCTNCLDKPKFGGRNIKKQCCKQRKC, the abundance fitness stood at 0.037 ± 0.14. Regarding KGRRSRRCGQCPGCQVPEDCGVCTNCLDKPKFGGRNIKKQCCKWRKC, the abundance fitness was -0.151 ± 0.095. For the variant KGRRSRRCGQCPGCQVPEDCGVCTNCLDKPKFGGRNIKKQCCKERKC, the abundance fitness turned out to be 0.003 ± 0.2. As for KGRRSRRCGQCPGCQVPEDCGVCTNCLDKPKFGGRNIKKQCCKTRKC, the abundance fitness is -0.283 ± 0.1. As to KGRRSRRCGQCPGCQVPEDCGVCTNCLDKPKFGGRNIKKQCCKVRKC, the abundance fitness was -0.213 ± 0.1. As to KGRRSRRCGQCPGCQVPEDCGVCTNCLDKPKFGGRNIKKQCCKRRKC, the abundance fitness was -0.023 ± 0.076. The value for KGRRSRRCGQCPGCQVPEDCGVCTNCLDKPKFGGRNIKKQCCKPRKC was -0.659 ± 0.16; that for KGRRSRRCGQCPGCQVPEDCGVCTNCLDKPKFGGRNIKKQCCKMAKC was -0.659 ± 0.11. Take KGRRSRRCGQCPGCQVPEDCGVCTNCLDKPKFGGRNIKKQCCKMLKC: the abundance fitness is -0.527 ± 0.093. As to KGRRSRRCGQCPGCQVPEDCGVCTNCLDKPKFGGRNIKKQCCKMVKC, the abundance fitness is -0.492 ± 0.11. The value for KGRRSRRCGQCPGCQVPEDCGVCTNCLDKPKFGGRNIKKQCCKMTKC was -0.597 ± 0.12.

For KGRRSRRCGQCPGCQVPEDCGVCTNCLDKPKFGGRNIKKQCCKMMKC, the abundance fitness is -0.308 ± 0.12.

Regarding KGRRSRRCGQCPGCQVPEDCGVCTNCLDKPKFGGRNIKKQCCKMWKC, the abundance fitness was -0.662 ± 0.11. KGRRSRRCGQCPGCQVPEDCGVCTNCLDKPKFGGRNIKKQCCKMSKC: the abundance fitness is -0.349 ± 0.092. The same measure for KGRRSRRCGQCPGCQVPEDCGVCTNCLDKPKFGGRNIKKQCCKMGKC: -0.429 ± 0.093; for KGRRSRRCGQCPGCQVPEDCGVCTNCLDKPKFGGRNIKKQCCKMPKC: -0.67 ± 0.14; for KGRRSRRCGQCPGCQVPEDCGVCTNCLDKPKFGGRNIKKQCCKMQKC: -0.52 ± 0.13. For the variant KGRRSRRCGQCPGCQVPEDCGVCTNCLDKPKFGGRNIKKQCCKMDKC, the abundance fitness is -0.411 ± 0.17.

As for KGRRSRRCGQCPGCQVPEDCGVCTNCLDKPKFGGRNIKKQCCKMHKC, the abundance fitness is -0.737 ± 0.21. The value for KGRRSRRCGQCPGCQVPEDCGVCTNCLDKPKFGGRNIKKQCCKMIKC was -0.439 ± 0.17; that for KGRRSRRCGQCPGCQVPEDCGVCTNCLDKPKFGGRNIKKQCCKMYKC was -0.735 ± 0.18. The value for KGRRSRRCGQCPGCQVPEDCGVCTNCLDKPKFGGRNIKKQCCKMKKC was -0.529 ± 0.23. The same measure for KGRRSRRCGQCPGCQVPEDCGVCTNCLDKPKFGGRNIKKQCCKMEKC: -0.682 ± 0.23. Regarding KGRRSRRCGQCPGCQVPEDCGVCTNCLDKPKFGGRNIKKQCCYMRKC, the abundance fitness worked out at 0.046 ± 0.13. The value for KGRRSRRCGQCPGCQVPEDCGVCTNCLDKPKFGGRNIKKQCCRMRKC was -0.27 ± 0.076; that for KGRRSRRCGQCPGCQVPEDCGVCTNCLDKPKFGGRNIKKQCCGMRKC was -0.312 ± 0.098.

Consider KGRRSRRCGQCPGCQVPEDCGVCTNCLDKPKFGGRNIKKQCCIMRKC, for which the abundance fitness turned out to be 0.121 ± 0.12. For KGRRSRRCGQCPGCQVPEDCGVCTNCLDKPKFGGRNIKKQCCTMRKC, the abundance fitness stood at 0.09 ± 0.095. Take KGRRSRRCGQCPGCQVPEDCGVCTNCLDKPKFGGRNIKKQCCSMRKC: the abundance fitness was -0.112 ± 0.084.

Turning to KGRRSRRCGQCPGCQVPEDCGVCTNCLDKPKFGGRNIKKQCCPMRKC, the abundance fitness was -0.85 ± 0.13. The value for KGRRSRRCGQCPGCQVPEDCGVCTNCLDKPKFGGRNIKKQCCLMRKC was 0.07 ± 0.08. The value for KGRRSRRCGQCPGCQVPEDCGVCTNCLDKPKFGGRNIKKQCCHMRKC was 0.37 ± 0.14.

On to KGRRSRRCGQCPGCQVPEDCGVCTNCLDKPKFGGRNIKKQCCVMRKC, for which the abundance fitness was determined as 0.108 ± 0.085. The same measure for KGRRSRRCGQCPGCQVPEDCGVCTNCLDKPKFGGRNIKKQCCWMRKC: -0.12 ± 0.093; for KGRRSRRCGQCPGCQVPEDCGVCTNCLDKPKFGGRNIKKQCCQMRKC: -0.215 ± 0.12. For the variant KGRRSRRCGQCPGCQVPEDCGVCTNCLDKPKFGGRNIKKQCCMMRKC, the abundance fitness was -0.031 ± 0.099. KGRRSRRCGQCPGCQVPEDCGVCTNCLDKPKFGGRNIKKQCCKMRKY: the abundance fitness was -0.967 ± 0.16. The value for KGRRSRRCGQCPGCQVPEDCGVCTNCLDKPKFGGRNIKKQCCKMRKW was -0.527 ± 0.48.

In the case of KGRRSRRCGQCPGCQVPEDCGVCTNCLDKPKFGGRNIKKQCCKMRKF, the abundance fitness is -0.52 ± 0.16. On to KGRRSRRCGQCPGCQVPEDCGVCTNCLDKPKFGGRNIKKQCCKMRKP, for which the abundance fitness was -0.789 ± 0.2.

Regarding KGRRSRRCGQCPGCQVPEDCGVCTNCLDKPKFGGRNIKKQCCKMRKS, the abundance fitness is -0.619 ± 0.13. Consider KGRRSRRCGQCPGCQVPEDCGVCTNCLDKPKFGGRNIKKQCCKMRKR, for which the abundance fitness is -0.925 ± 0.15. The same measure for KGRRSRRCGQCPGCQVPEDCGVCTNCLDKPKFGGRNIKKQCCKMRKT: -0.884 ± 0.36; for KGRRSRRCGQCPGCQVPEDCGVCTNCLDKPKFGGRNIKKQCCKMRKA: -0.695 ± 0.42. Take KGRRSRRCGQCPGCQVPEDCGVCTNCLDKPKFGGRNIKKQCCKMRKD: the abundance fitness was -0.347 ± 0.43.
